In patent US20240075137A1 (COMPUGEN, published 2024):
Substitutions are numbered along the chain they refer to. In names and notes the source's numbering stands.

T1: human PVRIG on cells (human, UniProt Q6DKI7 1-326)
T1 construct: whole, on cells; over-expressed on HEK cells or endogenous on Jurkat and CD8 T cells; also called hPVRIG; HEK hPVRIG cells
T1 sequence (looked up): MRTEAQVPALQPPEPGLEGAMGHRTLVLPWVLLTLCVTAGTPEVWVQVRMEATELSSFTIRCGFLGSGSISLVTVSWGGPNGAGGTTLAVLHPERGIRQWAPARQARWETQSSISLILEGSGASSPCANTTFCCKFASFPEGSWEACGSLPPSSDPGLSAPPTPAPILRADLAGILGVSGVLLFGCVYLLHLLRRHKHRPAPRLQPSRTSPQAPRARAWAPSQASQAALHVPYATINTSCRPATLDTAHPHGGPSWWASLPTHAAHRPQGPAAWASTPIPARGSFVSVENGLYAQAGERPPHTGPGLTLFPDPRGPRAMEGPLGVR

T2: human TIGIT on cells (human, UniProt Q495A1 22-141)
T2 construct: also called Expi293 human TIGIT over-expressing cells
T2 sequence: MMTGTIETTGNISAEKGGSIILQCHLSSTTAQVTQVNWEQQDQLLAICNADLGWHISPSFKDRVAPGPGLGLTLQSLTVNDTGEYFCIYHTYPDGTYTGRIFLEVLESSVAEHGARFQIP

T3: Mouse TIGIT-His (mouse, UniProt P86176)
T3 construct: also called mouse TIGIT monomer (prepared in-house)
T3 sequence (soluble monomer with His tag, looked up): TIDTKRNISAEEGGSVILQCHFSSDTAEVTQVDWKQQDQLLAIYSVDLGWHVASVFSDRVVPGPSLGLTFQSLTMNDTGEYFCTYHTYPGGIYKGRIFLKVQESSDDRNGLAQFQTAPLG

T4: human TIGIT ECD with C-terminal polyhistidine tag (human, UniProt Q495A1 22-141)
T4 construct: in-house or Sino Biological; also called hTIGIT-HIS; human TIGIT-HIS
T4 sequence: T2 sequence

B1: CPA.7.021 (antibody, V domains shown)
VH: EVQLVESGGGVVKPGGSLRLSCAASGFTFGTSSMNWVRQAPGKGLEWVAVISFDGTEIHYADSVKGRFTISRDNSKSTVFLQMNSLRPDDTALYYCAKGSGNIYFYSGMDVWGQGTTVTVSS
VL: DIQMTQSPSTLSASVGDRVTITCRAGQSISGWLAWFQQKPGKAPNLLIYETSTLESGVPSRFSGSGSGTEYTLTISSLQPDDFATYYCQQYYSYPLTFGQGTKVEIKR
B2: CHA.9.547.7.H4(S241P) (antibody, human IgG4 S228P, kappa, V domains shown)
VH: EVQLVESGGGLVQPGGSLRLSCAASGFTFSSYIMSWVRQAPGKGLEWVATISGGGTNTYYADSVKGRFTISRDNSKNTLYLQMNSLRAEDTAVYYCAKWLLSYYAMDYWGQGTLVTVSS
VL: DIQMTQSPSSLSASVGDRVTITCRASQNINVWLTWYQQKPGKAPKLLIYKASKSHTGVPSRFSGSGSGTDFTLTISSLQPEDFATYYCQQGQSYPYTFGQGTKLEIKR
notes: humanized hybridoma anti-TIGIT antibody, human IgG4
B3: CHA.9.547.13.H4(S241P) (antibody, human IgG4, V domains shown)
VH: B2 VH
VL: DIQMTQSPSSLSASVGDRITITCRASQNINVWLSWYQQKPGKAPKLLIYKASKSHTGVPSRFSGSGSGTDFTLTISSLQPEDFATYYCQQGQSYPYTFGQGTKLEIK
notes: humanized hybridoma antibody, human IgG4 (S241P)
B4: CPA.9.083 (fab) (Fab, V domains shown)
VH: EVQLVETGGGLIQPGRSLRLSCAASGFTFSSYAMHWVRQAPGKGLEWVAVISYDGTPVYYADSVKGRFTISRDNSKNTLYLQMNSLRAEDTAVYYCARDPLPLHYYGMDVWGQGTTVTVSS
VL: QSALTQPRSASGNPGQRVTISCSGSSSNMGRRPVNWYQQIPGTAPKLLIYSQNQRPSGVPDRFSGSQSGTSASLTISGLQSEDEAEYFCAVWDGDRRSLQLGGGTQLAVLG
notes: variant of CPA.9.027 screened as fab
B5: CPA.9.089 (fab) (Fab, V domains shown)
VH: B4 VH with G55R
VL: QSALTQPRSASGNPGQRVTISCSGSSSNMGRRPVNWYQQIPGTAPKLLIYSQNQRPSGVPDRFSGSQSGTSASLTISGLQSEDEAEYFCATWDDSLPRLNFGGGTKLAVL
notes: as for B4
B6: CPA.9.083.H4(S241P) (antibody, human IgG4, V domains shown)
VH: B4 VH
VL: B4 VL
B7: CPA.9.027 hIgG4 (antibody, V domains shown)
VH: B4 VH with T56S, P57N, V58K
VL: B4 VL with G94D, D95S, R96L, R97S
notes: phage-derived anti-TIGIT, human IgG4; also called CPA.9.027-H4
B8: CPA.9.086 (fab) (Fab, V domains shown)
VH: B4 VH with D54A, T56E, P57V, V58K
VL: B4 VL with G94D, D95I, R96G, S98V
notes: as for B4
B9: CPA.9.049 hIgG4 (antibody, V domains shown)
VH: B4 VH with T56S, P57N, V58K
VL: B4 VL with G94D, D95S, R96L, R97F, Q100L
notes: phage-derived anti-TIGIT, human IgG4; also called CPA.9.049-H4
B10: CPA.9.093 (fab) (Fab, V domains shown)
VH: B4 VH with D54E, T56D, P57R, V58K
VL: B5 VL with L96T, R98H, L99G, N100V
notes: as for B4

What was measured:
[1] = target: T1, human PVRIG on cells; assay: FACS on Jurkat cells; column head 'Kd', unit nM from legend paragraph 75
[2] = target: T1, human PVRIG on cells; assay: FACS on HEK hPVRIG cells; column head 'Kd', unit nM from legend paragraph 75
[3] = target: T5, Cyno TIGIT-His; assay: SPR (ProteOn), Cyno TIGIT-His
T5 construct: also called cyno TIGIT monomer (prepared in-house); C-terminal HIS-tagged cyno TIGIT ECD recombinant protein

[4] = target: T2, human TIGIT on cells; assay: FACS blocking of human PVR-m2aFc binding to human TIGIT OE Expi293 cells; binding site concentration; n=2
[5] = target: T2, human TIGIT on cells; assay: FACS titration of AF647-labelled mAb on human effector memory CD8+ T cells, Donor 321
[6] = target: T3, Mouse TIGIT-His; assay: SPR (ProteOn), Mouse TIGIT-His
[7] = target: T6, cyno TIGIT on cells (cynomolgus macaque); assay: FACS titration on cyno TIGIT OE Expi293 cells, binding site concentration; ± 95% CI; 'Fit: Good/Excellent'
T6 construct: whole, on cells; also called Expi293 cyno TIGIT over-expressing cells
Method: AF647-labeled goat anti-human F(ab′) (Jackson Immunoresearch) was added to the cells to detect binding of anti-TIGIT antibodies. The gMFI of the anti-TIGIT antibodies bound to the cyno TIGIT over-expressing Expi293 cells (black line), and the parental Expi293 cells (grey line) are shown.

[8] = target: T2, human TIGIT on cells; assay: FACS titration of AF647-labelled mAb on human effector memory CD8+ T cells, Donor 322
[9] = target: T2, human TIGIT on cells; assay: FACS titration on human TIGIT OE Expi293 cells, binding site concentration; ± 95% CI; 'Fit: Excellent'
Method: AF647-labeled goat anti-human F(ab′) (Jackson Immunoresearch) was added to the cells to detect binding of anti-TIGIT antibodies.

[10] = target: T2, human TIGIT on cells; assay: FACS blocking of human PVR-m2aFc binding to human TIGIT OE Expi293 cells; binding site concentration; n=1
[11] = target: T4, human TIGIT ECD with C-terminal …; assay: SPR (ProteOn), Human TIGIT-His
[12] = target: T2, human TIGIT on cells; assay: FACS titration of AF647-labelled mAb on human effector memory CD8+ T cells, Donor 334
[13] = target: T4, human TIGIT ECD with C-terminal …; assay: KinExA equilibrium, His-tagged human TIGIT, n = 1
Method: KinExA equilibrium experiments were performed using a KinExA 3200 instrument (Sapidyne Instruments, Boise, ID, USA) at 22° C. Recombinant His-tagged human TIGIT was obtained from Sino Biologicals (Beijing, China) and reconstituted into 1×PBS. All antigen and antibody samples for KinExA analyses were prepared in degassed PBST buffer (PBS with 0.05% tween 20) with 100 ug/mL filtered BSA and 0.02% sodium azide. […] For each KinExA experiment, ˜20 lag of human TIGIT was diluted into 1 mL of 50 mM sodium carbonate, pH 9.2 which was added directly to 50 mg of azlactone beads (Ultralink Support, Thermo Scientific, Rockford, IL, USA) and rocked overnight at 4° C. After rocking, the beads were rinsed once with 1 M Tris buffer, pH 8.5, containing 10 mg/mL BSA and rocked for one hour at room temperature in the same buffer. Coupled beads were added to the bead reservoir in the KinExA instrument and diluted to ˜30 mL with 1×HBS-N (0.01 M Hepes, 0.15M NaCl, GE Healthcare) containing 0.02% sodium azide which was also the running buffer for the KinExA instrument. All antigen-coupled beads were used immediately after preparation.
The volume flowed through the bead pack for each equilibrated sample for all experiments ranged from 4 mL to 11 mL at a flow rate of 0.25 mL/min.

[14] = target: T2, human TIGIT on cells; assay: flow cytometry of fab; MFI on human TIGIT over-expressing Expi293 / MFI on parental Expi293
[15] = target: T6, cyno TIGIT on cells; assay: flow cytometry of fab; MFI on cyno TIGIT over-expressing Expi293 / MFI on parental Expi293
[16] = target: T4, human TIGIT ECD with C-terminal …; assay: affinity maturation screen of fabs, SPR on hTIGIT-HIS
[17] = target: T6, cyno TIGIT on cells; assay: FACS titration of AF647-labelled mAb on cyno effector memory CD8+ T cells, Cyno Donor 3; isotype gMFI subtracted
[18] = target: T6, cyno TIGIT on cells; assay: FACS titration of AF647-labelled mAb on cyno effector memory CD8+ T cells, Cyno Donor 1; isotype gMFI subtracted
[19] = target: T4, human TIGIT ECD with C-terminal …; assay: SPR (ProteOn), mAb captured, human TIGIT injected
Method: (§1) All experiments were performed using a ProteOn XPR 36 instrument at 22° C. First, high density capture surfaces were prepared with goat anti human Fc polyclonal antibody (Thermo #H10500) and rabbit anti mouse antibodies (GE Healthcare #BR100838), respectively, immobilized over all vertical capture lanes and horizontal interspots on separate GLC chips using standard amine coupling. Typical immobilization levels for the anti-human capture pAb and the anti-mouse capture antibody for each GLC chip were around 5000 RU. Human TIGIT was obtained from Sino Biologicals while mouse TIGIT monomer and cyno TIGIT monomer were prepared in-house.
(§2) Each mAb was diluted to ˜0.5 μg/mL in running buffer which was 1×PBST with filtered BSA added to a final concentration of 100 μg/mL. For each “single-shot kinetics” cycle on the ProteOn instrument, a different mAb was captured over one of the six unique vertical capture lanes for approximately 1.5-2.5 minutes. After switching the buffer flow of the ProteOn to the horizontal direction, capture surfaces were stabilized for approximately 15-20 minutes. […] An identical buffer injection preceded each series of injected antigen for double-referencing. […] The sensorgrams of TIGIT antigen injected over captured mAbs were processed using a ProteOn version of Scrubber and were fit to a 1:1 kinetic binding model including a term for mass transport.

[20] = target: T2, human TIGIT on cells; assay: FACS blocking: Expi293 human TIGIT cells pre-incubated with mAb, then human PVR-m2aFc; lower gMFI = more blocking
[21] = target: T6, cyno TIGIT on cells; assay: FACS KD on Expi293 cyno TIGIT over-expressing cells; ± 95% CI of the fit
[22] = target: T3, Mouse TIGIT-His; assay: SPR (ProteOn), mAb captured, mouse TIGIT monomer injected
Method: as §1, §2

[23] = target: T2, human TIGIT on cells; assay: FACS KD on Expi293 human TIGIT over-expressing cells; ± 95% CI of the fit

T5 sequence (ECD with C-terminal His tag, as listed by the source): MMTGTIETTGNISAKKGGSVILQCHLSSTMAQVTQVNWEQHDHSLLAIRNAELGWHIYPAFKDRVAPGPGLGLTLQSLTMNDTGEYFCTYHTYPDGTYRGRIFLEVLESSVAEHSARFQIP

Binder | IC50 [4] | Kd [5] | Kd [7] | Kd [8] | Kd [9] | IC50 [10] | Kd [12] | MFIr (OE/Par) hTIGIT [14] | MFIr (OE/Par) cTIGIT [15] | fold improvement in binding over CPA.9.027 [16] | other results
B1 |  |  |  |  |  |  |  |  |  |  | Kd [1]: 3.18 nM; Kd [2]: 2.94 nM
B2 | 0.15 nM | 1.8 nM | 1.54 nM | 2.1 nM | 0.82 nM | 0.21 nM | 1.8 nM |  |  |  | Kd [3]: 0.456 nM; binding result [6]: no binding (tested: not printed); Kd [11]: 0.035 nM
B3 | 0.21 nM | 2 nM | 1.67 nM | 1.9 nM | 0.71 nM | 0.26 nM | 1.2 nM |  |  |  | Kd [13]: 18.8 pM
B4 |  |  |  |  |  |  |  | 170 | 97 | ≥ 25 fold | 
B5 |  |  |  |  |  |  |  | 110 | 52 | ≥ 25 fold | 
B6 | 0.22 nM | 0.13 nM | 0.49 nM | 0.12 nM | 0.39 nM | 0.47 nM | 0.13 nM |  |  |  | binding result [3]: binds; Kd [17]: 0.88 nM; Kd [6]: 0.434 nM; Kd [18]: 0.82 nM; Kd [11]: 0.0017 nM; Kd [13]: 0.694 pM
B7 |  |  |  |  |  |  |  |  |  |  | Kd [19]: 0.13 nM; gMFI of bound PVR-m2aFc at 266 pM mAb [20]: 529; gMFI of bound PVR-m2aFc at 1.3 nM mAb [20]: 253; gMFI of bound PVR-m2aFc at 6.7 nM mAb [20]: 208; Kd [21]: 2.25 nM; Kd [22]: 80 nM; Kd [23]: 0.17 nM
B8 |  |  |  |  |  |  |  | 36 | 34 | ≥ 25 fold | 
B9 |  |  |  |  |  |  |  |  |  |  | Kd [19]: 0.0945 nM; gMFI of bound PVR-m2aFc at 266 pM mAb [20]: 511; gMFI of bound PVR-m2aFc at 1.3 nM mAb [20]: 276; gMFI of bound PVR-m2aFc at 6.7 nM mAb [20]: 215; Kd [21]: 1.88 nM; Kd [22]: 82.7 nM; Kd [23]: 0.26 nM
B10 |  |  |  |  |  |  |  | 80 | 60 | ≥ 25 fold | 
